Laboratory results taken from patent publication US20250066456A1 (NOVAVAX, published 2025).
Read-outs that look alike come from different tables or passages of the source.

B1: 425.6 (antibody, V domains shown)
VH: VQLKQSGPSLVQPSQSLSITCTVSGFSLTSYGIHWVRQSPGKGLEWLGVIWRGGSTDYNAAFMSRLTITKDNSKSQVFFKMNSLQADDTAIYYCATHTEGDDVDYWGQGTSVTVSS
VL: QIVLTQSPAIMSVSPGEKVTMTCSASSTMSFMYWYQQKPGSSPRLLIYDTSNLASGVPVRFSGSGSGTSYSLTISRVEAEDAATYYCQQWNTYPLTFGAGTKLELKR
B2: 322.3 (antibody, V domains shown)
VH: RVQLQQSGPELVKPGASVTISCKASGYIFTSDYIHWVKQRPGQGPEWIGWIYPGNINTKYNEKFKGKATLTADKSSSTAYMQLSSLTSEDSAVYFCARDDGNLYYYAMDYWGQGTSVTVSS
VL: NIVLTQSPASLAVSLGQRATISCRASESVDSYGSSFMHWYQQKPGQPPKLLIYLASNLESGVPARFSGSGSRTDFTLTIDPVEADDAATYYCQQNNEDPRTFGGGTKLEIK
B3: 35.13 (antibody, V domains shown)
VH: QVQLQQSGAELGKPGASVKLSCRASGYTFTRYYIYWVKQRPGQGLEWIGEINPSNGDTHFNEKFKTKATLTVDKSSSSAHIHLTSLTSEDSAVYYCSIHAYSFDFWGQGTTLTVSS
VL: EIQMTQSPSSMSASLGDRITITCQATQDIVKNLNWYQQKPGKPPSFLIYHATELAKGVPSRFSGSGSGSDYSLTISNLESEDFADYYCLQFYDFPFTFGAGTKLELKR

Legend:
[1] = target: T1, BV2443 (recombinant CoV S glycoprotein, Gamma) (SARS-CoV-2, UniProt P0DTC2 14-1273)
[2] = target: T2, Delta Plus CoV S glycoprotein (recombinant) (Severe acute respiratory syndrome …, UniProt P0DTC2 14-1273)
[3] = target: T3, BV2541 (recombinant CoV S glycoprotein, BA.4) (SARS-CoV-2, UniProt P0DTC2 14-1273); assay: ELISA on coated rS
[4] = target: T4, BV2562 (recombinant CoV S glycoprotein, BA.4.6) (SARS-CoV-2, UniProt P0DTC2 14-1273); assay: ELISA on coated rS
[5] = target: T5, BV2373 (recombinant CoV S glycoprotein, Prototype) (SARS-CoV-2, UniProt P0DTC2 14-1273); assay: hACE2 receptor inhibition ELISA on coated rS; competitor hACE2-His
[6] = target: T6, BV2425 (recombinant CoV S glycoprotein, Alpha) (SARS-CoV-2, UniProt P0DTC2 14-1273); assay: as above
[7] = target: T7, BV2438 (recombinant CoV S glycoprotein, Beta) (SARS-CoV-2, UniProt P0DTC2 14-1273); assay: as above
[8] = target: T1, BV2443 (recombinant CoV S glycoprotein, …); assay: as above
[9] = target: T8, BV2465 (recombinant CoV S glycoprotein, Delta) (SARS-CoV-2, UniProt P0DTC2 14-1273); assay: as above
[10] = target: T9, BV2509 (recombinant CoV S glycoprotein, BA.1) (SARS-CoV-2, UniProt P0DTC2 14-1273); assay: as above
[11] = target: T9, BV2509 (recombinant CoV S glycoprotein, …); assay: ELISA on coated rS
[12] = target: BV2561 (recombinant CoV S glycoprotein, BA.2.75) (SARS-CoV-2, UniProt P0DTC2 14-1273); assay: ELISA on coated rS
[13] = target: T10, BV2589 (recombinant CoV S glycoprotein, BQ.1.1) (SARS-CoV-2, UniProt P0DTC2 14-1273); assay: ELISA on coated rS
[14] = target: T10, BV2589 (recombinant CoV S glycoprotein, …); assay: BLI, antibody on anti-mouse Fc biosensor, rS analyte
[15] = target: T6, BV2425 (recombinant CoV S glycoprotein, …); assay: ELISA, plate coated with rS, serial dilution of the mAb, anti-mouse HRP, A450
[16] = target: T7, BV2438 (recombinant CoV S glycoprotein, …); assay: as above
[17] = target: T1, BV2443 (recombinant CoV S glycoprotein, …); assay: as above
[18] = target: T9, BV2509 (recombinant CoV S glycoprotein, …); assay: as above
[19] = target: T3, BV2541 (recombinant CoV S glycoprotein, …)
[20] = target: T4, BV2562 (recombinant CoV S glycoprotein, …)
[21] = target: T5, BV2373 (recombinant CoV S glycoprotein, …); assay: ELISA on coated rS
[22] = target: T6, BV2425 (recombinant CoV S glycoprotein, …); assay: ELISA on coated rS
[23] = target: T7, BV2438 (recombinant CoV S glycoprotein, …); assay: ELISA on coated rS
[24] = target: T1, BV2443 (recombinant CoV S glycoprotein, …); assay: ELISA on coated rS
[25] = target: T8, BV2465 (recombinant CoV S glycoprotein, …); assay: ELISA on coated rS
[26] = target: T9, BV2509 (recombinant CoV S glycoprotein, …); assay: ELISA on coated rS; remark: listed apart in the source
[27] = target: T2, Delta Plus CoV S glycoprotein …; assay: ELISA on coated rS

Binder | EC50 [3] [µg/mL] | EC50 [4] [µg/mL] | IC50 [5] [µg/mL] | IC50 [6] [µg/mL] | IC50 [7] [µg/mL] | IC50 [8] [µg/mL] | IC50 [9] [µg/mL] | IC50 [10] [µg/mL] | EC50 [11] [µg/mL] | EC50 [12] [µg/mL] | Kd [14] [pM] | further results
B1 | 0.016 | 0.021 | 0.064 | 0.1 | 0.048 | 0.048 | 0.069 | > 3 |  |  |  | Kd (BV2457 (rS India)): < 1 pM; koff (BV2457 (rS India)): 1.88e-07 s⁻¹; kon (BV2457 (rS India)): 117000 M⁻¹ s⁻¹; Kd [1]: 3.52 pM; EC50 [2]: 9.8 ng/mL
B2 | 0.082 | 0.117 |  |  |  |  |  |  | 0.197 | 0.144 | 1.63 | EC50 [13]: 0.077 µg/mL; EC50 [15]: 0.085 µg/mL; EC50 [16]: 0.084 µg/mL; EC50 [17]: 0.084 µg/mL; EC50 [18]: 0.144 µg/mL
B3 |  |  | 0.074 | 0.142 | 0.922 | 0.07 | 0.098 | 0.102 | 0.038 | 0.048 | < 1 | IC50 [19]: > 3 µg/mL; IC50 [20]: > 3 µg/mL; EC50 [21]: 7 ng/mL; EC50 [22]: 0.011 µg/mL; EC50 [23]: 0.119 µg/mL; EC50 [24]: 0.012 µg/mL; EC50 [25]: 0.01 µg/mL; EC50 [26]: 0.05 µg/mL; EC50 [27]: 0.011 µg/mL; koff [14]: < 1e-07 s⁻¹; kon [14]: 26900 M⁻¹ s⁻¹
